Measured values taken from PMC2796082.
Like-named read-outs stand apart in the source and are kept apart here.

B1: Sol Δ10, soluble betaglycan endoglin-like domain (domain or fragment)
chain: GPEPSTRCELSPINASHPVQALMESFTVLSGCASRGTTGLPREVHVLNLRSTDQGPGQRQREVTLHLNPIASVHTHHKPIVFLLNSPQPLVWHLKTERLAAGVPRLFLVSEGSVVQFPSGNFSLTAETEERNFPQENEHLLRWAQKEYGAVTSFTELKIARNIYIKVGEDQVFPPTCNIGKNFLSLNYLAEYLQPKAAEGCVLPSQPHEKEVHIIELITPSSNPYSAFQVDIIVDIRPAQEDPEVVKNLVLILKCKKSVNWVIKSFDVKGNLKVIAPNSIGFGKESERSMTMTKLVRDDIPSTQENLMKWALDNGYRPVTSYTMAPVANRFHLRLENNEEMRDEEVHTIPPELRILLDPDHPPALDNPLFPGEGSPNGGLPFPFPD
B2: Sol Δ11, soluble betaglycan uromodulin-like domain (domain or fragment)
chain: GPEPSTRCELSPINASHPVQAIPRRGWKEGEDRIPRPKQPIVPSVQLLPDHREPEEVQGGVDIALSVKCDHEKMVVAVDKDSFQTNGYSGMELTLLDPSCKAKMNGTHFVLESPLNGCGTRHRRSTPDGVVYYNSIVVQAPSPGDSSGWPDGYEDLESGDNGFPGDGDEGETAPLSRAGVVVFNCSLRQLRNPSGFQGQLDGNATFNMELYNTDLFLVPSPGVFSVAENEHVYVEVSVTKADQDLGFAIQTCFLSPYSNPDRMSDYTIIENICPKDDSVKFYSSKRVHFPIPHAEVDKKRFSFLFKSVFNTSLLFLHCELTLCSRKKGSLKLPRCVTPDDACTSLDATMIWTMMQNKKTFTKPLAVVLQVDYKENVPSTKDSSPIPPPPPQIFH
B3: Recombinant soluble betaglycan (receptor)
chain: GPEPSTRCELSPINASHPVQALMESFTVLSGCASRGTTGLPREVHVLNLRSTDQGPGQRQREVTLHLNPIASVHTHHKPIVFLLNSPQPLVWHLKTERLAAGVPRLFLVSEGSVVQFPSGNFSLTAETEERNFPQENEHLLRWAQKEYGAVTSFTELKIARNIYIKVGEDQVFPPTCNIGKNFLSLNYLAEYLQPKAAEGCVLPSQPHEKEVHIIELITPSSNPYSAFQVDIIVDIRPAQEDPEVVKNLVLILKCKKSVNWVIKSFDVKGNLKVIAPNSIGFGKESERSMTMTKLVRDDIPSTQENLMKWALDNGYRPVTSYTMAPVANRFHLRLENNEEMRDEEVHTIPPELRILLDPDHPPALDNPLFPGEGSPNGGLPFPFPDIPRRGWKEGEDRIPRPKQPIVPSVQLLPDHREPEEVQGGVDIALSVKCDHEKMVVAVDKDSFQTNGYSGMELTLLDPSCKAKMNGTHFVLESPLNGCGTRHRRSTPDGVVYYNSIVVQAPSPGDSSGWPDGYEDLESGDNGFPGDGDEGETAPLSRAGVVVFNCSLRQLRNPSGFQGQLDGNATFNMELYNTDLFLVPSPGVFSVAENEHVYVEVSVTKADQDLGFAIQTCFLSPYSNPDRMSDYTIIENICPKDDSVKFYSSKRVHFPIPHAEVDKKRFSFLFKSVFNTSLLFLHCELTLCSRKKGSLKLPRCVTPDDACTSLDATMIWTMMQNKKTFTKPLAVVLQVDYKENVPSTKDSSPIPPPPPQIFHGLDTLTV
modifications: glycoprotein, devoid of GAG chains

Tests used:
Assay in all cases: SPR
TGF-β1 [1] = target: TGF-β1
Sequence of TGF-β1 (P01137 279-390): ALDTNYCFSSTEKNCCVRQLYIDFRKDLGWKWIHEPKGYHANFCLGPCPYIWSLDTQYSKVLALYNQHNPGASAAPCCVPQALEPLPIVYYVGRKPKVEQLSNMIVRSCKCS

TGF-β3 [2] = target: T1, TGF-β3
T1 sequence (P10600 301-412, species assumed, looked up): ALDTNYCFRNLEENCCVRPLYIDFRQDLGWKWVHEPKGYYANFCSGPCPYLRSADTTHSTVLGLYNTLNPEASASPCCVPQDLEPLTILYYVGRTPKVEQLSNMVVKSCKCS

TGF-β1 [3] = target: TGF-β1; remark: listed apart in the source
TGF-β2 [4] = target: T2, TGF-β2
T2 sequence (P61812 303-414, species assumed, looked up): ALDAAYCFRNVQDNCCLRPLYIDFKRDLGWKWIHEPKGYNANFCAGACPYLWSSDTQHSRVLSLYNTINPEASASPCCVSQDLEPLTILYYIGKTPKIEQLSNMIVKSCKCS

TGF-β3 [5] = target: T1, TGF-β3; remark: listed apart in the source
TGF-β2 [6] = target: T2, TGF-β2; remark: listed apart in the source

Binder	Kd (TGF-β1 [1]) [nM]	Kd (TGF-β3 [2]) [nM]	Kd (TGF-β1 [3]) [nM]	Kd (TGF-β2 [4]) [nM]	Kd (TGF-β3 [5]) [nM]	Kd (TGF-β2 [6]) [nM]
B1	1900	5800	–	–	–	–
B2	9700	5800	2900	2200	4400	2600
B3	95	143	–	–	–	36
